From patent US20240423923A1, “EXTRACELLULAR VESICLES FROM MICROALGAE, THEIR BIODISTRIBUTION UPON ADMINISTRATION, AND USES” (AGS THERAPEUTICS SAS, priority 2022, published 2024)

Assays:
[1] = target: Flagellin Sensing 2 receptor (FLS2) (Arabidopsis thaliana) (UniProt Q9FL28); assay: cell-based or functional assay
[2] = medial prefrontal cortex, anterior cingulate cortex, central nucleus of amygdala; cited from earlier work

Sequence of flg22 peptide (22 amino acid synthetic peptide that mimics the conserved N-terminal region of bacterial flagellin) (P21184 30-51): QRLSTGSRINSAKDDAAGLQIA
Sequence of UniProt Q9FL28 (Q9FL28 24-1173): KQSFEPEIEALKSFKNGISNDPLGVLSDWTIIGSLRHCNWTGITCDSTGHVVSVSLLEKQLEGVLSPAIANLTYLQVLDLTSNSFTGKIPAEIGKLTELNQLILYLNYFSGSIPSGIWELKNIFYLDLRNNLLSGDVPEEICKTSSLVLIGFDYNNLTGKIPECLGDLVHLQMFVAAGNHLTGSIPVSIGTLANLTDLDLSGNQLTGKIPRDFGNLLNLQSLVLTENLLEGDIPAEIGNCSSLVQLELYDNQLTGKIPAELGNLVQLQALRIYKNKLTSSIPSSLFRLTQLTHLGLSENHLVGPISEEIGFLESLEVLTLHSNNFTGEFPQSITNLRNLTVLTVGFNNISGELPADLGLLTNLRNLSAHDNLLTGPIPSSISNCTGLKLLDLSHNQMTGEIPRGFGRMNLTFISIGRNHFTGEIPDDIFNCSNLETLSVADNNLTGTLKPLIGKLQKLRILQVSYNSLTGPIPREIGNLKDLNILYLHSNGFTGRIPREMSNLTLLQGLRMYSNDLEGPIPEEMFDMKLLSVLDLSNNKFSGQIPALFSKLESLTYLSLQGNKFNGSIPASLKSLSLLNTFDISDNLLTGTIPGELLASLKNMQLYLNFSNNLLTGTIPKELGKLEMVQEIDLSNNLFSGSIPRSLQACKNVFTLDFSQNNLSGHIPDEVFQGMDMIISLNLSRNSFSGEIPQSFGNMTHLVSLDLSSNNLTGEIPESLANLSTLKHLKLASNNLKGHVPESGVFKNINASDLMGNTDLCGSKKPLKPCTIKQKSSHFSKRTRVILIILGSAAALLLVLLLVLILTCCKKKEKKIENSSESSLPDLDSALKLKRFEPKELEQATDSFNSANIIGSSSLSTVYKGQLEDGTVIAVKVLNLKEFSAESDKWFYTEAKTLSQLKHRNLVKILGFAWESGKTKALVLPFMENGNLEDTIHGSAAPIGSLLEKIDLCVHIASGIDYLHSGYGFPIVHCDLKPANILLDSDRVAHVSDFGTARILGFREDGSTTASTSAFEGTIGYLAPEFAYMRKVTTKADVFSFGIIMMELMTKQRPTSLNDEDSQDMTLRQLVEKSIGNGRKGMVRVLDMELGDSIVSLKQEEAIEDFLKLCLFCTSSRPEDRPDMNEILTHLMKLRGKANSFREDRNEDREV

Compound	stomatal closure assay; effect of flg22-loaded EVs compared with free flg22 peptide [1]	increase in Fos-like immunoreactivity [2]
flg22 peptide (22 amino acid synthetic peptide that mimics the conserved N-terminal region of bacterial flagellin)	> 10 nM	–
CCN(CC)C(=O)[C@@H]1C=C2c3cccc4[nH]cc(c34)C[C@H]2N(C)C1 [LSD, Lysergic acid diethylamide]	–	a five- to eight-fold increase
